Test [1] has as its target CF2ThCXCR4 (human) (UniProt P61073). The test can be described thus: FACS binding; CF2ThCXCR4 cells, % positive. For orientation: A flow cytometer gives signals particle by particle.
For test [2] the target is unchanged. The test can be described thus: FACS binding; CF2ThCXCR4 cells, MFI.
In test [3] the target is CXCR4 (Jurkat) (human) (UniProt P61073). The test is described as follows: FACS binding; Jurkat cells, MFI.
The target is the same in test [4]. The test can be described thus: FACS binding; Jurkat cells, % positive.
The next test deals with ΔN31-CXCR4 (human) (UniProt P61073). The test can be described thus: FACS on 293T cells expressing CXCR4 variants.
In test [5] the target is 2444b CXCR2/CXCR4 chimera (human) (UniProt P25025). The test is described as follows: FACS on 293T cells expressing CXCR4 variants.
Chain of 2444b CXCR2/CXCR4 chimera (human) (P25025 other isoform, or with tags, fused parts or gaps mutant limits assumed): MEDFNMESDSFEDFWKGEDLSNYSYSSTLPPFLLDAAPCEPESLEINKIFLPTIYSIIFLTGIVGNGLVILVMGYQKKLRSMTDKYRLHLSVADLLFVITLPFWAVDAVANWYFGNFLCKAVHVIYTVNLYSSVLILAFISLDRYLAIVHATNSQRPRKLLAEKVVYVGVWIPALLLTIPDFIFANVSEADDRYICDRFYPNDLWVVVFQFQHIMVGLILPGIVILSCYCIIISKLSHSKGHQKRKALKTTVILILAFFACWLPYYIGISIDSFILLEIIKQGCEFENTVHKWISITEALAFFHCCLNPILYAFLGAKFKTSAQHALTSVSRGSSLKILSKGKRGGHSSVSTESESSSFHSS
The next test addresses 4442 CXCR2/CXCR4 chimera. The test is described as follows: FACS on 293T cells expressing CXCR4 variants.
In a further test the target is 2442 CXCR2/CXCR4 chimera. The test can be described thus: FACS on 293T cells expressing CXCR4 variants.
The target of test [6] is human CXCR4 (wild type) (human) (UniProt P61073). The test is described as follows: FACS on 293T cells expressing CXCR4 variants.
Chain of human CXCR4 (wild type) (human) (P61073 whole entry): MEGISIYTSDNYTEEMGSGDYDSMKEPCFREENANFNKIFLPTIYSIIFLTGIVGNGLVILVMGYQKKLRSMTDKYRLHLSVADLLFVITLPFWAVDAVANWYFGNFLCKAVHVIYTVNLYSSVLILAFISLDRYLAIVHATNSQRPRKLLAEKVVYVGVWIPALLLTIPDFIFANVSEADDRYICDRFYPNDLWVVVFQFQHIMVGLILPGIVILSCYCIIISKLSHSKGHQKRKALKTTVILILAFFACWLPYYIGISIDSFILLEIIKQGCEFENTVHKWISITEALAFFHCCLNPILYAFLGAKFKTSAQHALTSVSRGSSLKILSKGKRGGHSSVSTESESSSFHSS
Another test concerns the target ΔN25-CXCR4 (human) (UniProt P61073). The test is described as follows: FACS on 293T cells expressing CXCR4 variants.

Chain of CF2ThCXCR4 (human) (P61073 whole entry): as above
Chain of CXCR4 (Jurkat) (human) (P61073 whole entry): as above

One may read the EC50 as the concentration giving half of the maximal effect. With 12G5, the EC50 with CF2ThCXCR4 (human) [1] was 0.005 µg/mL; with CF2ThCXCR4 (human) [2], 0.7 µg/mL; with CXCR4 (Jurkat) (human) [3], 16.9 µg/mL; in the test with CXCR4 (Jurkat) (human) [4], 0.06 µg/mL.

With murine monoclonal antibody 12G5, the binding (+%) with ΔN31-CXCR4 (human) was 55.4%; in test [5] it was 70.1%; with 4442 CXCR2/CXCR4 chimera it was 103%; with 2442 CXCR2/CXCR4 chimera it was 85.8%; in test [6] it was 100%; with ΔN25-CXCR4 (human), 69.2%.

Values taken from patent publication US20110250165A1.
